From patent US20110059490, “POLYMERASE COMPOSITIONS AND USES” (Fermentas UAB, published 2011) come the findings set out here.

Numbering of substitutions follows the chain as printed.

In series [1] the target is T1, Thermococcus sp. DNA polymerase (Thermococcus sp.) (UniProt Q56366).
T1 sequence: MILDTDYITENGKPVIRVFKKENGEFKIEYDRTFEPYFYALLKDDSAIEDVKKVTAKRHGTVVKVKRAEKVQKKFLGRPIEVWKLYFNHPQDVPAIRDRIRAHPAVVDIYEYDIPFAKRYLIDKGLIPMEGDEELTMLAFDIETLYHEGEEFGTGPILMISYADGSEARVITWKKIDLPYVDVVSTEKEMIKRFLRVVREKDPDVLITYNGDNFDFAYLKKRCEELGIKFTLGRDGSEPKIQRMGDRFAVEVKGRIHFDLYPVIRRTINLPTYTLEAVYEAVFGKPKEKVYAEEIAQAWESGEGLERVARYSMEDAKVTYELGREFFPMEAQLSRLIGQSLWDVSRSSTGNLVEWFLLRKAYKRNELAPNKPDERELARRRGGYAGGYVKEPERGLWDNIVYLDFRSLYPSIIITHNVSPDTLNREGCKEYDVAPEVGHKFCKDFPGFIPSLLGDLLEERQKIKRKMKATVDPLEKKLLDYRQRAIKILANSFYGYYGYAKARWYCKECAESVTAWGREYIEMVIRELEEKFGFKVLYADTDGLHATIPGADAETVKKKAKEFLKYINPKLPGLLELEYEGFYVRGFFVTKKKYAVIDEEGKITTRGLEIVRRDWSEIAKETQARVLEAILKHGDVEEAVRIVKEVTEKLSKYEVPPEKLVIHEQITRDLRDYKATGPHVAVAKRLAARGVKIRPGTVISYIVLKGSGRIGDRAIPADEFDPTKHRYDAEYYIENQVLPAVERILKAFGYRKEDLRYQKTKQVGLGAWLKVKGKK
The series is described as follows: EMSA. The note with it: EMSA as for Taq, 1x TAE with 2 mM EDTA. (In general: Mobility shift assays separate free from complexed probe on a gel.)

Series [2] concerns the target Thermococcus sp. DNA polymerase R671E/K677E/K712E R671E,K677E,K712E (Thermococcus sp.) (UniProt Q56366). Description: EMSA. The note with it: EMSA as for Taq, 1x TAE with 2 mM EDTA.
The target in series [3] is Thermococcus sp. DNA polymerase (R671S/K677S/K712S)/N210D R671S,K677S,K712S,N210D (Thermococcus sp.) (UniProt Q56366). Description: EMSA. As to conditions: EMSA as for Taq, 1x TAE with 2 mM EDTA.
The target in series [4] is T2, Thermococcus sp. DNA polymerase R671S/K677S/K712S R671S,K677S,K712S (Thermococcus sp.) (UniProt Q56366).
T2 sequence: T1 sequence with R460S, K466S, K501S
Description: EMSA. The note with it: EMSA as for Taq, 1x TAE with 2 mM EDTA.

Series [5] has as its target Thermococcus sp. DNA polymerase (R671E/K677E/K712E)/N210D R671E,K677E,K712E,N210D (Thermococcus sp.) (UniProt Q56366). The series is described as follows: EMSA. As to conditions: EMSA as for Taq, 1x TAE with 2 mM EDTA.
The target in series [6] is Thermococcus sp. DNA polymerase R671E/K677E R671E,K677E (Thermococcus sp.) (UniProt Q56366). The series is described as follows: EMSA. The note with it: EMSA as for Taq, 1x TAE with 2 mM EDTA.
Series [7] deals with T3, Taq DNA polymerase I532T/R536C/K540C/H784C (UniProt P19821 P19821:1-832, I532T,R536C,K540C,H784C). Description: EMSA; 1x TAE with 2 mM EDTA, pH 8.3, 10% glycerol. The note with it: tags: Fermentas; label: 5'-33P on 24 nt strand; 24 nt primer annealed to 44 nt template, 20 nt 5' template overhang. How it is done: (§1) Affinity of Taq DNA polymerase (FIG. 7A) and its mutants (FIG. 7B-J) for double-stranded DNA (template-primer duplex) was analyzed by electrophoretic mobility shift assays (EMSA) as previously described (Lagunavicius et al. (2003) J. Mol. Biol. 326: 1051-1064) except that 1 nM of 24*/44 nt duplex (* indicates ³³P label in 5′-terminus of 24 nt oligonucleotide) formed by annealing of 5′-[…]-3′ (24 nt) and 5′-[…]-3′ (44 nt) and 0, 1, 2, 5, 10, 20, 50, 100, 200, 500, 1000 nM of the proteins were mixed in 1×TAE buffer (40 mM Tris-acetate, pH8.3 at 25° C.; 2 mM EDTA) supplemented with 10% glycerol and electrophoresis was performed in 12% PAAG. The gels were analyzed by Cyclone Storage Phosphor System and OptiQuant™ Image Analysis Software (Packard Instruments) and GraphPad Prism version 4.03 Software (GraphPad Software, Inc.) (FIG. 7).
T3 sequence (P19821 whole entry I532T/R536C/K540C/H784C, one chain of several): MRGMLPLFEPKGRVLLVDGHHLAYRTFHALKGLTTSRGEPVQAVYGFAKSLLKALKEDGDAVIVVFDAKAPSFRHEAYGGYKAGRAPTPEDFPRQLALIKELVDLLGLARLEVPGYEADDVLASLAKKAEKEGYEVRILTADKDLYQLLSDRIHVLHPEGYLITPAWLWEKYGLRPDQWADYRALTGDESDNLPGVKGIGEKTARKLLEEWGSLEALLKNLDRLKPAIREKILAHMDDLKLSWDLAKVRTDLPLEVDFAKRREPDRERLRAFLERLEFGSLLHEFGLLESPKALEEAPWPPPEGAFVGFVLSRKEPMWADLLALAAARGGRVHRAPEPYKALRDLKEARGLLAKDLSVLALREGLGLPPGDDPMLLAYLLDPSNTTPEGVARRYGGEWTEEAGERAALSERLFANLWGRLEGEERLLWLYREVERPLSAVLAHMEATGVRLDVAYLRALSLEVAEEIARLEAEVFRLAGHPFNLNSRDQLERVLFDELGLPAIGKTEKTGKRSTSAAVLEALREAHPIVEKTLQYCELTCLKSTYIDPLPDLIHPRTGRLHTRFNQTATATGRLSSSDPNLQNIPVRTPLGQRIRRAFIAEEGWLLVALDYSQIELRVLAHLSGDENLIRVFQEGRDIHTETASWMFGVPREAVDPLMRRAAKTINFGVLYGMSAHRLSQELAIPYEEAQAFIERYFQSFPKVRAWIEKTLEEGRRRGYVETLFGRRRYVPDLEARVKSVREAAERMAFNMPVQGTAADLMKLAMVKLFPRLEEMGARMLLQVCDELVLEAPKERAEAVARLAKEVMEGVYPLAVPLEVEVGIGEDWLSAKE
(§2) Affinity of Taq DNA polymerase (FIG. 8A) and its mutants (FIG. 8B-G) for single-stranded DNA (primer) was analyzed as described in Example 7, except that 5′-labeled 24 nt oligonucleotide (5′-[…]) was used instead of 24*/44 nt duplex (FIG. 8).

Series [8] deals with T4, Taq DNA polymerase N485S/R536C/K540C/H784C (UniProt P19821 P19821:1-832, N485S,R536C,K540C,H784C). Description: EMSA; 1x TAE with 2 mM EDTA, pH 8.3, 10% glycerol. As to conditions: tags: Fermentas; label: 5'-33P on 24 nt strand; 24 nt primer annealed to 44 nt template, 20 nt 5' template overhang. How it is done:
as §1, §2

Series [9] addresses T5, Taq DNA polymerase (K540C/H784C)/R25S (UniProt P19821 P19821:1-832, K540C,H784C,R25S). The series is described as follows: EMSA; 1x TAE with 2 mM EDTA, pH 8.3, 10% glycerol. As to conditions: tags: Fermentas; label: 5'-33P on 24 nt strand; 24 nt primer annealed to 44 nt template, 20 nt 5' template overhang. The method, then: as §1, §2
Series [10] concerns the target Taq DNA polymerase E491G/R536C/K540C/H784C (UniProt P19821 P19821:1-832, E491G,R536C,K540C,H784C). Description: EMSA; 1x TAE with 2 mM EDTA, pH 8.3, 10% glycerol. The note with it: tags: Fermentas. How it is done: as §1, §2
Series [11] concerns the target Taq DNA polymerase (K540C/H784C)/Y81F (UniProt P19821 P19821:1-832, K540C,H784C,Y81F). Description: EMSA; 1x TAE with 2 mM EDTA, pH 8.3, 10% glycerol. As to conditions: tags: Fermentas. The method, then: as §1, §2
Series [12] deals with Taq DNA polymerase K540C/H784C (UniProt P19821 P19821:1-832, K540C,H784C). The series is described as follows: EMSA; 1x TAE with 2 mM EDTA, pH 8.3, 10% glycerol. As to conditions: tags: Fermentas. The method, then:
as §1, §2

In series [13] the target is T6, Taq DNA polymerase R536C/K540C/D610A/H784C (UniProt P19821 P19821:1-832, R536C,K540C,D610A,H784C). Description: EMSA; 1x TAE with 2 mM EDTA, pH 8.3, 10% glycerol. The note with it: tags: Fermentas; label: 5'-33P on 24 nt strand; 24 nt primer annealed to 44 nt template, 20 nt 5' template overhang. How it is done:
as §1, §2

Series [14] addresses Taq DNA polymerase (I532T/R536C/K540C/H784C)/(R25S/Y81F/G187A) (UniProt P19821 P19821:1-832, I532T,R536C,K540C,H784C,R25S,Y81F,G187A). The series is described as follows: EMSA; 1x TAE with 2 mM EDTA, pH 8.3; above highest tested 1000 nM. The note with it: tags: Fermentas. How it is done:
as §1, §2

In series [15] the target is Taq DNA polymerase (R536C/K540C/D610A/H784C)/(Y81F/G187A) (UniProt P19821 P19821:1-832, R536C,K540C,D610A,H784C,Y81F,G187A). The description is as above. The note with it: tags: Fermentas. The method, then: as §1, §2
Chain of Taq DNA polymerase (R536C/K540C/D610A/H784C)/(Y81F/G187A) (P19821 whole entry Y81F/G187A/R536C/K540C/D610A/H784C, one chain of several): as the sequence (P19821 whole entry I532T/R536C/K540C/H784C, one chain of several) above, with Y81F, G187A, T532I, D610A counted along it
The next series deals with Taq DNA polymerase (UniProt P19821 P19821:1-832). The series is described as follows: EMSA; 1x TAE with 2 mM EDTA, pH 8.3, 10% glycerol. The note with it: tags: recombinant, Fermentas; label: 5'-33P. How it is done: as §1, §2
Chain of Taq DNA polymerase (P19821 whole entry, one chain of several): as the sequence (P19821 whole entry I532T/R536C/K540C/H784C, one chain of several) above, with T532I, C536R, C540K, C784H counted along it
For series [16], the target named is T3, Taq DNA polymerase …. Description: EMSA; 1x TAE with 2 mM EDTA, pH 8.3; above highest tested 1000 nM. As to conditions: tags: Fermentas; label: 5'-33P. The method, then: as §1, §2
The target in series [17] is T5, Taq DNA polymerase (K540C/H784C)/R25S. The series is described as above. The note with it: tags: Fermentas; label: 5'-33P. How it is done:
as §1, §2

Series [18] addresses T6, Taq DNA polymerase …. The series is described as above. The note with it: tags: Fermentas; label: 5'-33P. The method, then: as §1, §2
The target in series [19] is T4, Taq DNA polymerase …. The series is described as follows: EMSA; 1x TAE with 2 mM EDTA, pH 8.3; tighter than WT. The note with it: tags: Fermentas; label: 5'-33P.
The mark [20] stands for this setting: label: 5'-33P on 24 nt strand, 24 nt primer annealed to 44 nt template, 20 nt 5' template overhang.

Chain of Taq DNA polymerase E491G/R536C/K540C/H784C (P19821 whole entry E491G/R536C/K540C/H784C, one chain of several): as the sequence (P19821 whole entry I532T/R536C/K540C/H784C, one chain of several) above, with E491G, T532I counted along it
Chain of Taq DNA polymerase K540C/H784C (P19821 whole entry K540C/H784C, one chain of several): as the sequence (P19821 whole entry I532T/R536C/K540C/H784C, one chain of several) above, with T532I, C536R counted along it
T6 sequence (P19821 whole entry R536C/K540C/D610A/H784C, one chain of several): as the sequence (P19821 whole entry I532T/R536C/K540C/H784C, one chain of several) above, with T532I, D610A counted along it
T5 sequence (P19821 whole entry R25S/K540C/H784C, one chain of several): as the sequence (P19821 whole entry I532T/R536C/K540C/H784C, one chain of several) above, with R25S, T532I, C536R counted along it
Chain of Taq DNA polymerase (I532T/R536C/K540C/H784C)/(R25S/Y81F/G187A) (P19821 whole entry R25S/Y81F/G187A/I532T/R536C/K540C/H784C, one chain of several): as the sequence (P19821 whole entry I532T/R536C/K540C/H784C, one chain of several) above, with R25S, Y81F, G187A counted along it
Chain of Taq DNA polymerase (K540C/H784C)/Y81F (P19821 whole entry Y81F/K540C/H784C, one chain of several): as the sequence (P19821 whole entry I532T/R536C/K540C/H784C, one chain of several) above, with Y81F, T532I, C536R counted along it
T4 sequence (P19821 whole entry N485S/R536C/K540C/H784C, one chain of several): as the sequence (P19821 whole entry I532T/R536C/K540C/H784C, one chain of several) above, with N485S, T532I counted along it

“TTTTAGCCGCTAGAGTCGACCTGC / GGAGACAAGCTTGTATGCCTGCAGGTCGACTCTAGCGGCTAAAA [24/44 nt template-primer duplex]”: the Kd in series [1] was determined as 2.8 nM; in series [2], 190 nM; in [3], 190 nM; in series [4], 110 nM; in [5] it was 470 nM; in series [6] it was 240 nM.

TTTTAGCCGCTAGAGTCGACCTGC [24 nt primer]: the Kd worked out at 52 nM in series [1]; 740 nM in [2]; 440 nM in [3]; 310 nM in series [4]; 2300 nM in series [5]; 730 nM in [6].

B1: 24/44 nt template-primer duplex (dsDNA)
DNA 1: TTTTAGCCGCTAGAGTCGACCTGC
DNA 2: GGAGACAAGCTTGTATGCCTGCAGGTCGACTCTAGCGGCTAAAA
Consider B1, for which the Kd turned out to be 990 nM in series [7]; 32 nM in series [8]; 56 nM in series [9]; 200 nM in series [10] (setting [20]); 28 nM in [11] (setting [20]); 25 nM in [12] (setting [20]). The results for the Kd in [13], in [14] (setting [20]) and in series [15] (setting [20]) were 320 nM, 16000 nM and 2200 nM, respectively.

With TTTTAGCCGCTAGAGTCGACCTGC (ssDNA) [24 nt primer], the Kd in series [10] (label: 5'-33P) worked out at 530 nM; with Taq DNA polymerase, 79 nM; in series [11] (label: 5'-33P), 350 nM; in series [12] (label: 5'-33P) it was 460 nM; in series [16], 5200 nM; in series [17], 2700 nM. In addition, the Kd in series [14] (label: 5'-33P) stood at 7700 nM; in series [15] (label: 5'-33P), 3700 nM; in series [18], 2000 nM; in series [19] it was 23 nM.

Usually Kd stands for the constant that tells how readily two partners part at equilibrium.
